Measured values as given in article PMC5993824 (Nature Communications, 2018).

Target: T1, GST-CypA (UniProt P62937 1-165)
T1 construct: cyclophilin A fused to GST; source: E. coli BL21, purified on glutathione-agarose
Assay: pull-down; GST proteins (GST, GST-CypA, GST-FKBP12) on glutathione sepharose (10 µl) added to HEK 293 T lysate (50 µl diluted to 500 µL with lysis buffer) of cells transfected with an empty (pCi) or Tat vector; 1 h at 4 °C; three washes with lysis buffer; western blots
Conditions: one partner purified

T1 sequence (P62937 whole entry, the tested form may be a part): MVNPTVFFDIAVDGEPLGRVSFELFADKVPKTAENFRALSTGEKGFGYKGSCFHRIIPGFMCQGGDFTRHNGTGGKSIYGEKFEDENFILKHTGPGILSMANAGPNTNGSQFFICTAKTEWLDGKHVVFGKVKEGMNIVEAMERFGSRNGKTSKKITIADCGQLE

B1: DHHC-20 (enzyme, human (endogenous in HEK 293 T), UniProt Q5W0Z9 1-365, looked up)
chain: MAPWTLWRCCQRVVGWVPVLFITFVVVWSYYAYVVELCVFTIFGNEENGKTVVYLVAFHLFFVMFVWSYWMTIFTSPASPSKEFYLSNSEKERYEKEFSQERQQEILRRAARALPIYTTSASKTIRYCEKCQLIKPDRAHHCSACDSCILKMDHHCPWVNNCVGFSNYKFFLLFLLYSLLYCLFVAATVLEYFIKFWTNELTDTRAKFHVLFLFFVSAMFFISVLSLFSYHCWLVGKNRTTIESFRAPTFSYGPDGNGFSLGCSKNWRQVFGDEKKYWLLPIFSSLGDGCSFPTRLVGMDPEQASVTNQNEYARSSGSNQPFPIKPLSESKNRLLDSESQWLENGAEEGIVKSGTNNHVTVAIEN
notes: S-acyl transferase DHHC-20, detected with anti-DHHC-20 (Sigma SAB 4501054); also called S-acyl transferase DHHC-20; source: endogenous, HEK 293 T lysate
fold more pulled down from extracts of Tat-transfected cells against empty-vector cells: ~4 fold
